Data as given in publication PMC2928020 (The Journal of Cell Biology, 2010).
Where no end group is shown, it is not given here. The star is where a group is joined. FITC = O=C1OC2(c3ccc(O)cc3Oc3cc(O)ccc32)c2ccc(NC(=S)*)cc21

Target: SNX27 PDZ domain, wild type (residues 39-131 of rat SNX27) (rat, UniProt Q8K4V4 39-131)
Assay: fluorescence polarisation

Kd: 17 ± 1.2 µM
Binder: {FITC}-TNDSLL [FITC-labeled peptide corresponding to the C-terminal six residues of the β2AR (TNDSLL)]
